Results from PMC5458760, “The LOTUS domain is a conserved DEAD-box RNA helicase regulator essential for the recruitment of Vasa to the germ plasm and nuage” (Genes & Development, 2017).

Assays:
[1] = biological target: T1, Vasa 200–661 (Drosophila, UniProt P09052 200-661); test: pull-down; GST pull-down with purified recombinant proteins; GST or GST fusion as bait (8.75-10 µM in the legends), Vasa as prey (17.5-20 µM in the legends); samples on an SDS gel stained with Coomassie brilliant blue; details: both partners purified
T1 construct: Vasa, Drosophila DEAD-box RNA helicase, helicase core with the C-terminal extension, residues 200-661; It may be the same preparation as His-Vasa 200–661; Construct details are in the Supplemental Material; also called Vasa helicase core; source: E. coli (Rosetta 2), purified
T1 sequence (looked up): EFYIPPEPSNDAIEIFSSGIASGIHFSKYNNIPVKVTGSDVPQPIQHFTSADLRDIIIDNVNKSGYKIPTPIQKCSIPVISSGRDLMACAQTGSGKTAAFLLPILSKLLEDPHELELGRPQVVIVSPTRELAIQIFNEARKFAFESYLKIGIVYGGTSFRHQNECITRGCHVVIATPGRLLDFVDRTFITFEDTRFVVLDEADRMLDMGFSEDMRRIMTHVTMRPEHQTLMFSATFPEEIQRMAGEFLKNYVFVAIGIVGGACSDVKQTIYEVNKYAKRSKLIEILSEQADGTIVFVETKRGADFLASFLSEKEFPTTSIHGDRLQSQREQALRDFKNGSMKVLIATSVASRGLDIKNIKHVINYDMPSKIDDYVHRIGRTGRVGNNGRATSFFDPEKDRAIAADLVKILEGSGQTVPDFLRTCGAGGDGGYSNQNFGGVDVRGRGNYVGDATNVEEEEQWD

[2] = biological target: T2, His-Vasa 200–661 (Drosophila, UniProt P09052 200-661); test: as above; details: both partners purified
T2 construct: Vasa, Drosophila DEAD-box RNA helicase, helicase core with the C-terminal extension, residues 200-661; Construct details are in the Supplemental Material; also called His-tagged Vasa 200–661; wild-type Vasa helicase core; source: E. coli (Rosetta 2), purified
T2 sequence (looked up): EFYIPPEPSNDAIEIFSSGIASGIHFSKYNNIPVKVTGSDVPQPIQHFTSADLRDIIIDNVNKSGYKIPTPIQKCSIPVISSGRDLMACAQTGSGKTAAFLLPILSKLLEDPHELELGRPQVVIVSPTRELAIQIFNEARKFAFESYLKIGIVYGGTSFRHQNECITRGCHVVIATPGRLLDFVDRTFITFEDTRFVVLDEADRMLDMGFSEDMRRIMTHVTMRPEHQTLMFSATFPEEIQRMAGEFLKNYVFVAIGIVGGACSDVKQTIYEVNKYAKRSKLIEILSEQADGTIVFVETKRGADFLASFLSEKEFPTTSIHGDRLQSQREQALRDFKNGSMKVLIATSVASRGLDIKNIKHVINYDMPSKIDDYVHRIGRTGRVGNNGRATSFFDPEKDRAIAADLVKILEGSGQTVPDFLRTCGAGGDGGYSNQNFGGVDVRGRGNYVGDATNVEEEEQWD

[3] = biological target: T3, Vasa 463–661 (Drosophila, UniProt P09052 463-661); test: ITC; Vasa 463–661 titrated to the Oskar LOTUS domain (144–240); 25°C; VP-ITC; 20 mM Tris pH 7.5, 150 mM sodium chloride; curve fitted with the LOTUS monomer concentration; details: both partners purified
T3 construct: Vasa, Drosophila, C-terminal RecA-like domain with the C-terminal extension, residues 463-661; Details are in the Supplemental Material; also called Vasa-CTD; source: E. coli (Rosetta 2), purified
T3 sequence (looked up): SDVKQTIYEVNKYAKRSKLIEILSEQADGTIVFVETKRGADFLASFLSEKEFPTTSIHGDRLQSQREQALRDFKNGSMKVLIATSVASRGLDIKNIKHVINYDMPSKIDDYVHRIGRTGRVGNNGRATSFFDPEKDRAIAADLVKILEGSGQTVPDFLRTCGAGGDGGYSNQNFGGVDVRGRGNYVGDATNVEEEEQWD

[4] = biological target: T4, Vasa 463–623 (Drosophila, UniProt P09052 463-623); test: crystal structure; Oskar 139–240 and Vasa 463–623 mixed in a 2:1 molar ratio; hanging drop vapor diffusion at 18°C; 1.4 Å; molecular replacement; details: both partners purified
T4 construct: Vasa, Drosophila, C-terminal RecA-like domain without the C-terminal extension, residues 463-623; also called Vasa-CTD lacking the C-terminal extension; Vasa C-terminal RecA-like domain; source: E. coli (Rosetta 2), purified
T4 sequence (looked up): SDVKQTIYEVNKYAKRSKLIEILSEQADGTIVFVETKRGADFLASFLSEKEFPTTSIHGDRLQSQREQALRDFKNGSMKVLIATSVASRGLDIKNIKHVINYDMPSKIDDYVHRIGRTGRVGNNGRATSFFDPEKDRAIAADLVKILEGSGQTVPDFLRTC

[5] = biological target: the molecule itself; test: as above

B1: GST-Oskar LOTUS (amino acids 139–240) (domain or fragment, Drosophila, UniProt P25158 139-240, looked up)
chain: MTIIESNYISVREEYPDIDSEVRAILLSHAQNGITISSIKSEYRKLTGNPFPLHDNVTDFLLTIPNVTAECSESGKRIFNLKASLKNGHLLDMVLNQKERTS
notes: Oskar, Drosophila, LOTUS (eLOTUS) domain with its C-terminal extension, residues 139-240; residue numbers are those of the long isoform; Construct details are in the Supplemental Material; also called Oskar GST-LOTUS; GST fusion of the LOTUS domain of Oskar; source: E. coli (Rosetta 2), purified
B1: binds [1]; binds [2].

B2: Oskar LOTUS domain (amino acids 144–240) (domain or fragment, Drosophila, UniProt P25158 144-240, looked up)
chain: SNYISVREEYPDIDSEVRAILLSHAQNGITISSIKSEYRKLTGNPFPLHDNVTDFLLTIPNVTAECSESGKRIFNLKASLKNGHLLDMVLNQKERTS
notes: Oskar, Drosophila, LOTUS domain, residues 144-240; residue numbers are those of the long isoform; The legend notes that the LOTUS domain of Oskar forms dimers (Jeske et al. 2015); The ITC curve was fitted with the monomer concentration; Details are in the Supplemental Material; also called Osk 144–240; Oskar 144–240 (LOTUS); source: E. coli (Rosetta 2), purified
With B2 the Kd [3] was about 10 µM.

B3: Oskar 139–240 (LOTUS domain) (domain or fragment, Drosophila, UniProt P25158 139-240, looked up)
chain: MTIIESNYISVREEYPDIDSEVRAILLSHAQNGITISSIKSEYRKLTGNPFPLHDNVTDFLLTIPNVTAECSESGKRIFNLKASLKNGHLLDMVLNQKERTS
notes: Oskar, Drosophila, LOTUS (eLOTUS) domain with its C-terminal extension, residues 139-240; residue numbers are those of the long isoform; This is a dimer in the crystal; No tag is stated for the crystallised protein; also called LOTUS domain of Oskar (amino acids 139–240); eLOTUS; source: E. coli (Rosetta 2), purified
In the case of B3, the binding result [4] is reported as “binds” and the “stoichiometry N” value [5] is reported as 2.
